This passage reports abundance fitness results from the Human Domainome abundance scans (Beltran et al. 2025).

± gives the uncertainty stated by the source.

Sequences and labels used below:
B1: Apoptosis-associated speck-like protein containing a CARD, residues 114 to 194; numbered along this chain, Q9ULZ3 (parent)
chain: FIDQHRAALIARVTNVEWLLDALYGKVLTDEQYQAVRAEPTNPSKMRKLFSFTPAWNWTCKDLLLQALRESQSYLVEDLER

The variants in this data set derive from B1. The data set can be described thus: abundance fitness (aPCA) (normalised: wild type 0, dead -1); higher = more abundant; growth selection in yeast, the domain comes from the species named. As to conditions: Homo sapiens.
Consider K45E, for which the abundance fitness is -0.846 ± 0.19.
The figure for Y33C is 0.121 ± 0.06; for Y33Q it is -0.546 ± 0.13; for P43R it is -0.091 ± 0.039.
To P43I belongs -0.566 ± 0.19; to P43W, -0.313 ± 0.068; to P43E, 0.07 ± 0.072.
The figure for K61W is -0.003 ± 0.071; for K61A it is -0.332 ± 0.057; for K61M it is -0.388 ± 0.096.
For the variant K61I, the abundance fitness is -0.968 ± 0.23.
The figure for K61F is 0.22 ± 0.16; for K61P it is -0.806 ± 0.12; for L9R it is -0.925 ± 0.13.
The figure for L9H is -0.749 ± 0.18; for L9P it is -0.694 ± 0.14; for L9F it is -0.763 ± 0.2.
Turning to F1E, the abundance fitness is -0.745 ± 0.27.
The figure for F1H is -0.375 ± 0.41.
F1C: the abundance fitness is -1.04 ± 0.38.
The figure for E70K is -0.116 ± 0.17; for E70R it is -0.343 ± 0.061; for E70A it is -0.209 ± 0.086.
To T59D belongs -0.007 ± 0.1; to T59I, -0.243 ± 0.088; to N42G, -0.331 ± 0.05.
To N42L belongs -0.337 ± 0.061.
As for N42I, the abundance fitness is 0.082 ± 0.31.
The figure for N42Q is -0.488 ± 0.11; for N42Y it is -0.896 ± 0.36; for N42S it is -0.445 ± 0.061.
To N42H belongs -0.624 ± 0.14.
With E31T, the abundance fitness is -0.465 ± 0.096.
Take E31A: the abundance fitness was -0.252 ± 0.054.
The figure for E31W is -0.463 ± 0.1; for E31R it is -0.238 ± 0.051.
V13N: the abundance fitness is -0.861 ± 0.25.
To V13F belongs -0.495 ± 0.15; to V13G, -0.598 ± 0.042.
The figure for N15K is -0.041 ± 0.09.
With N15G, the abundance fitness was -0.604 ± 0.058.
To N15I belongs -0.857 ± 0.25; to L23S, -0.879 ± 0.13; to L23D, -0.962 ± 0.22.
The figure for L23R is -0.83 ± 0.088; for L23Q it is -0.739 ± 0.24; for F52K it is -1 ± 0.35.
The figure for F52M is -0.454 ± 0.24.
Consider F52T, for which the abundance fitness is -1.03 ± 0.21.
The figure for F52P is -0.979 ± 0.19; for F52G it is -0.943 ± 0.077.
The figure for F52W is -0.696 ± 0.087; for M46L it is -0.298 ± 0.06.
Consider M46S, for which the abundance fitness was -0.933 ± 0.13.
For the variant M46A, the abundance fitness is -0.679 ± 0.056.
For M46E, the abundance fitness was -0.831 ± 0.16.
The figure for M46I is -0.778 ± 0.32.
In the case of L64W, the abundance fitness was -0.961 ± 0.2.
The figure for L64G is -0.695 ± 0.076.
The figure for L64F is 0.2 ± 0.11; for L64K it is -0.918 ± 0.2.
For the variant L64Q, the abundance fitness was -0.354 ± 0.19.
To L68E belongs -0.886 ± 0.19; to L68Q, -0.876 ± 0.45; to L68Y, -0.777 ± 0.24.
To L68H belongs -0.334 ± 0.16.
The figure for L68G is -0.764 ± 0.1; for K26G it is -0.513 ± 0.062; for K26N it is -0.314 ± 0.16.
For K26H, the abundance fitness was -0.422 ± 0.13.
The figure for K26P is -0.369 ± 0.065; for K26V it is -0.106 ± 0.051; for K26T it is 0.014 ± 0.073.
To A38D belongs -0.258 ± 0.094.
The figure for A38K is -0.088 ± 0.074.
As for P40W, the abundance fitness was -0.832 ± 0.12.
The figure for P40A is -0.256 ± 0.068.
Regarding P40T, the abundance fitness is -0.202 ± 0.07.
Turning to P40D, the abundance fitness was -0.38 ± 0.16.
The figure for P40I is -0.339 ± 0.14; for P40G it is -0.425 ± 0.042; for S71K it is -0.538 ± 0.2.
Turning to S71E, the abundance fitness was -0.958 ± 0.22.
In the case of S71L, the abundance fitness was -0.816 ± 0.1.
The figure for S71P is -0.774 ± 0.14.
On to S71I, for which the abundance fitness was -0.813 ± 0.27.
The figure for S71N is 0.161 ± 0.16; for A55Q it is -0.062 ± 0.081.
With A55H, the abundance fitness was -0.005 ± 0.15.
The figure for H5P is -0.741 ± 0.13; for H5T it is -0.602 ± 0.086; for H5M it is -0.145 ± 0.075.
Take H5I: the abundance fitness was -0.057 ± 0.13.
To H5N belongs -0.157 ± 0.12; to H5D, -0.751 ± 0.24.
Turning to H5Q, the abundance fitness was -0.341 ± 0.11.
The figure for H5E is -0.441 ± 0.11; for H5R it is -0.743 ± 0.062.
To D21K belongs -0.287 ± 0.11.
The figure for D21A is -0.477 ± 0.052; for D21F it is -0.801 ± 0.31.
As for D21I, the abundance fitness was -0.69 ± 0.24.
To D21H belongs -0.162 ± 0.073; to K48Q, -0.674 ± 0.16; to K48I, -0.779 ± 0.32.
To K48R belongs -0.185 ± 0.051; to K48V, -0.469 ± 0.063; to K48F, -0.585 ± 0.12.
For the variant K48P, the abundance fitness was -0.71 ± 0.11.
Regarding D3F, the abundance fitness was -0.749 ± 0.38.
The figure for D3C is -0.822 ± 0.23.
The figure for D3K is -0.825 ± 0.44; for D3H it is -0.616 ± 0.16; for D3S it is -0.592 ± 0.11.
The figure for R6H is -0.635 ± 0.23.
Consider R6T, for which the abundance fitness is -0.549 ± 0.13.
To S44D belongs 0.091 ± 0.085.
On to S44V, for which the abundance fitness was -0.947 ± 0.12.
To S44N belongs -0.511 ± 0.36; to S44P, -0.868 ± 0.14.
The figure for S44G is -0.063 ± 0.042; for S44Y it is -1.01 ± 0.28.
In the case of L28N, the abundance fitness is -0.805 ± 0.31.
The figure for L28F is -0.896 ± 0.23.
The figure for Q4V is -0.165 ± 0.063; for Q4H it is -0.315 ± 0.14; for Q4K it is -0.111 ± 0.074.
To Q4R belongs -0.19 ± 0.043; to Q4I, -0.015 ± 0.12.
On to A67H, for which the abundance fitness was -0.766 ± 0.33.
The figure for A67N is -0.278 ± 0.22; for A67K it is -0.446 ± 0.18; for A67C it is -0.629 ± 0.13.
To A67W belongs -0.491 ± 0.099; to S73W, -0.302 ± 0.077; to S73F, -0.551 ± 0.12.
To S73Y belongs -0.167 ± 0.086.
As for S73K, the abundance fitness is -0.289 ± 0.11.
To S73I belongs -0.628 ± 0.18; to S73M, -0.266 ± 0.095.
On to Q66H, for which the abundance fitness is -0.695 ± 0.37.
To Q66N belongs -0.529 ± 0.27; to N57D, 0.092 ± 0.073; to N57W, -0.468 ± 0.086.
To N57R belongs -0.731 ± 0.074; to F50W, -0.693 ± 0.097.
The figure for F50M is 0.113 ± 0.071; for F50E it is -0.799 ± 0.19; for F50I it is -0.418 ± 0.13.
F50K: the abundance fitness is -1.02 ± 0.32.
The figure for I10W is -0.793 ± 0.11; for I10H it is -0.769 ± 0.27.
To I10D belongs -0.658 ± 0.15.
To I10T belongs -0.515 ± 0.092.
On to I10M, for which the abundance fitness was -0.489 ± 0.11.
The figure for Y24A is -0.254 ± 0.056.
For the variant Y24S, the abundance fitness is -0.319 ± 0.056.
The figure for Y24L is -0.035 ± 0.047; for Y24R it is 0.109 ± 0.046; for W18E it is 0.103 ± 0.083.
Turning to W18V, the abundance fitness stood at 0.107 ± 0.048.
The figure for W18M is 0 ± 0.077.
As for W18P, the abundance fitness came to 0.174 ± 0.047.
Take W18Q: the abundance fitness stood at 0.174 ± 0.06.
V36E: the abundance fitness was -0.801 ± 0.12.
Take V36N: the abundance fitness was -0.823 ± 0.46.
The figure for V36G is -0.691 ± 0.08.
